Results on 1 molecule are retold here after patent US20140127211A1 (Pfizer, published 2014).

For assay [1], the target named is T1, human Notch3 NRR recombinant protein (Notch3 NRR_Avi_His tag) (human).
T1 construct: Purified from CHO-PACE cells; the entry includes the C-terminal Avi and His6 tag
T1 chain: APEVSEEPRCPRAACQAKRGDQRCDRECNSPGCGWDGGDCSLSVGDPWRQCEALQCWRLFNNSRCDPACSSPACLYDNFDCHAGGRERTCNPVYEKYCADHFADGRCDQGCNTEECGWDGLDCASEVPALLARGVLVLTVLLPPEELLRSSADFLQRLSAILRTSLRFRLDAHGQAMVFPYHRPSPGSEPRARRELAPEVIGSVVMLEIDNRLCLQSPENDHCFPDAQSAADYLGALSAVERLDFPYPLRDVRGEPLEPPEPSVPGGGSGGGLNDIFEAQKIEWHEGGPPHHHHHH
In words: ELISA, recombinant protein, hybridoma supernatant. For orientation: In an ELISA, binding on a coated surface is turned into a signal by an enzyme label.

For assay [2], the target named is T2, full-length mouse Notch3 expressed on the cell surface (mouse, UniProt Q61982 40-2318).
T2 construct: whole, on cells; Over-expressed on U-2 OS cells; also called U2OS/mNotch3
T2 sequence (Q61982 40-2318): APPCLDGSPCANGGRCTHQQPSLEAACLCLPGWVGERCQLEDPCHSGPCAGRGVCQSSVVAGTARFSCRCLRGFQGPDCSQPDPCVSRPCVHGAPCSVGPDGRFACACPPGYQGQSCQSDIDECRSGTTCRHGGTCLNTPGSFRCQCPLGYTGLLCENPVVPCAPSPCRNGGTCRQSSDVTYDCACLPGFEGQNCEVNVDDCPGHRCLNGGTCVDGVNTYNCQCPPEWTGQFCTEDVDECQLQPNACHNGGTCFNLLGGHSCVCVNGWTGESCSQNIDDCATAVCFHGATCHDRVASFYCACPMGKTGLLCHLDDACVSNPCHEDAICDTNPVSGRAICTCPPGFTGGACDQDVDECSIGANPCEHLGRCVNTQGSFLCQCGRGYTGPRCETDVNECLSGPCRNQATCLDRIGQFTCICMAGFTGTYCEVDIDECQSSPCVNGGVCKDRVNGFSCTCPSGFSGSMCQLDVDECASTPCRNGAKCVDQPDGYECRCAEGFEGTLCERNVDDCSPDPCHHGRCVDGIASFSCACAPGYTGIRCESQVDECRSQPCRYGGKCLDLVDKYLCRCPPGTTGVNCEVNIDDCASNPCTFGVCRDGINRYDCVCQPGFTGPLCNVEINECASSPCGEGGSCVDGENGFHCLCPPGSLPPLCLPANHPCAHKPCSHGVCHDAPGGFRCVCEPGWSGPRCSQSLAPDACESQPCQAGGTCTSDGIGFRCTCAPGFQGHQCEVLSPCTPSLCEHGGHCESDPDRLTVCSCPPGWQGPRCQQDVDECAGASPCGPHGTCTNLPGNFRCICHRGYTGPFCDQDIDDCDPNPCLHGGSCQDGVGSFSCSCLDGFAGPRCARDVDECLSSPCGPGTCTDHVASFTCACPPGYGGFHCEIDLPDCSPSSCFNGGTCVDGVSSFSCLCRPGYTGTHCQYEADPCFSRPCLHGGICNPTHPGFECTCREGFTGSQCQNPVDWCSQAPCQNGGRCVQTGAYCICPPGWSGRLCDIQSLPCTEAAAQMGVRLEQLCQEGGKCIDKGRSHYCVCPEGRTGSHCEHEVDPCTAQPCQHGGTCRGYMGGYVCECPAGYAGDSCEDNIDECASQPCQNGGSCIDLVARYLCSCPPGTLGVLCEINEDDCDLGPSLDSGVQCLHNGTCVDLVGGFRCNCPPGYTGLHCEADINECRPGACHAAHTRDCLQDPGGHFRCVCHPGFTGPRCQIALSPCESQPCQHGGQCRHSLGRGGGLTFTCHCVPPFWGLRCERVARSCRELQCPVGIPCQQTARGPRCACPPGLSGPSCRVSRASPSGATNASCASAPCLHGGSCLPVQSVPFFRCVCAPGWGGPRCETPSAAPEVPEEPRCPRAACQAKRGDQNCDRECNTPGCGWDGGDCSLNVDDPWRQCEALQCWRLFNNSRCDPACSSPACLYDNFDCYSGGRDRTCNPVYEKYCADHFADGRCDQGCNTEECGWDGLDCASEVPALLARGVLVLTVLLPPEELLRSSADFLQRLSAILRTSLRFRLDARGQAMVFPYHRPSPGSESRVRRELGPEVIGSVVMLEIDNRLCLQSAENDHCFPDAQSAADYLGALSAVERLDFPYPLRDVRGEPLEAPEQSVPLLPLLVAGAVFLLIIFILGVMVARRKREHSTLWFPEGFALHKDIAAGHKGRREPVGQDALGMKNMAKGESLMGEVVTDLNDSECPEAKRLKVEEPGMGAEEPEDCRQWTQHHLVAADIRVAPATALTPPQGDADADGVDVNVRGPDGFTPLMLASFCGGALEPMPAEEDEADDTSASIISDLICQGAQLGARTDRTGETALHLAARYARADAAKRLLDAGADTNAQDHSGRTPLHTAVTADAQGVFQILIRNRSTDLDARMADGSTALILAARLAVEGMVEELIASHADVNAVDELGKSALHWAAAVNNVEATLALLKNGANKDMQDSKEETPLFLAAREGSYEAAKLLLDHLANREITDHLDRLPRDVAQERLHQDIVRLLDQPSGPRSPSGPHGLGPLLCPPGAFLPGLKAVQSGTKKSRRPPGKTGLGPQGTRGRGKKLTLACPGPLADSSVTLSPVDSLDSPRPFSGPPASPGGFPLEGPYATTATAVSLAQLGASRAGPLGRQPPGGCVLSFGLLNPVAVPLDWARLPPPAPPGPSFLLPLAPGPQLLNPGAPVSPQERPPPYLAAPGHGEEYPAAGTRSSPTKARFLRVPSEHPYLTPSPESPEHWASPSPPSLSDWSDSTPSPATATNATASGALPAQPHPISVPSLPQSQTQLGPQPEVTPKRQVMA
The experiment in a line: cell-based ELISA, U-2 OS cells over-expressing mouse Notch3.

B1: parental rat clone 75 (r75) (antibody, V domains shown)
VH: QVKLLQSGAALVKPGASVKMSCKASGYAFTDYWVTWVKQSHGKSLEWIGEISPNSGGTNFNEKFKGKATLTVDKSTSTAYMELSRLTSEDSAIYYCTRGEIRYNWFAYWGQGTLVTVSS
VL: NIVMTQSPKSMSISVGDRVTMNCKASQNVGNNIAWYQQKPGQSPKLLIYYASNRYTGVPDRFTGGGYGTDFTLTINSMQAEDAAFYYCQRLYNSPFTFGSGTKLEIK
notes: Rat monoclonal antibody from hybridoma, tested as hybridoma supernatant
For B1, the “O.D. 450 nM” value in assay [1] is not below 1 O.D. 450 nM. Further, the binding result in assay [2] is reported as “no binding”.
